In assay [1] the target is vacant E. coli 70S ribosome (lacking bound mRNA and tRNAs) (E. coli) (UniProt P0AG67). Description: co-sedimentation.
Assay [2] has as its target E. coli RNA polymerase core enzyme (α2ββ′ω) (E. coli) (UniProt P0A7Z4). Description: co-sedimentation.

pKd: −log10 of the molar value. Values joined by “and” are separate entries in the source; they are usually repeats but may differ in a detail not shown here. Equal values may be shown once.

Experimental findings from publication PMC5737488 are described below.

For orientation: pKd means the Kd on a negative log10 scale, so that one unit is a factor of ten. A lower pKd goes with a high Kd. “E. coli RNA polymerase core enzyme (α2ββ′ω) (from UniProt P0A7Z4;P0A8V2;P0A8T7;P0A800) (complex)”: in assay [1], the pKd is 6.03; the percent bound to the ribosome is 90%; the percent of RNA polymerase co-migrating with ribosomes amounted to 80%; the stoichiometry N (RNA polymerase per ribosome) was 2 and 1.

In assay [1], “E. coli RNA polymerase holoenzyme (core enzyme with bound sigma factor σ70) (from UniProt P0A7Z4;P0A8V2;P0A8T7;P0A800;P00579) (complex)” had a KD (fit assuming only monomeric holoenzyme) of 1200 nM, a pKd of 5.85 and a percent bound to the ribosome of 31%.

The substance “transcription elongation complex (core RNA polymerase with a bound DNA:RNA scaffold) (from UniProt P0A7Z4;P0A8V2;P0A8T7;P0A800)” registered a percent bound to the ribosome in assay [1] of 15%.

Consider “vacant E. coli 70S ribosome (lacking bound mRNA and tRNAs) (from UniProt P0AG67;P0A7V0;P02358;P02359;P0A7X3;P0A7R9;P0A7L0;P0A7R1;P0A7K2;P0A7K6) (complex)”, for which the stoichiometry N (ribosome per RNA polymerase) in assay [2] was 1.
